In patent publication US20220356229A1 (published 2022):

B1: anti-coronavirus antibody 563 (antibody, V domains shown)
VH: QVQLVESGGGVVQPGRSLRLSCAASGFTFSSYAMHWVRQAPGKGLEWVAVISDDGSNKYYADSVKGRFTISRDNSKNTLYLQMNSLRAEDTAVYYCARDIVATIRRLFDYWGQGTLVTVSS
VL: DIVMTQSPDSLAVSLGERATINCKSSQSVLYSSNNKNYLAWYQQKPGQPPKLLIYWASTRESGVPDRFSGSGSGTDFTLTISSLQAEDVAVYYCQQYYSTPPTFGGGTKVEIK
B2: anti-SARS-CoV-2 antibody 1538 (antibody, V domains shown)
VH: EVQLLESGGGLVQPGGSLRLSCAASGFTFSSYAMSWVRQAPGKGLEWVSGISDSGGSTYYADYVKGRFTISRDNSKDTLYLQMNSLRAEDTAVYYCAKDRGNEYALTHYYYYAMDVWGQGTTVTVSS
VL: DIQMTQSPSSLSASVGDRVTITCRASQSISSYLNWYQQKPGKAPKLLIYAAYSLQSGVPSRFSGGGSGTDFTLTISSLQPEDFATYFCQQSYSTPITFGQGTRLEIKR
B3: anti-coronavirus antibody 560 (antibody, V domains shown)
VH: EVQLVESGGGLVQPGGSLRLSCAASGFTISSNYMSWVRQAPGKGLEWVSVIYSGGSTYYADSVKGRFTISRDNSKNTLYLQMNSLRAEDTAVYYCAREEGEWEKDYYGMDVWGQGTTVTVSS
VL: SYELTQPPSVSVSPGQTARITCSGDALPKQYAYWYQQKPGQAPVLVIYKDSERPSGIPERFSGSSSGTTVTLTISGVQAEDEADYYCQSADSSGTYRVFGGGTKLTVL
B4: anti-SARS-CoV-2 antibody 896 (antibody, V domains shown)
VH: EVQLVESGGGVVQPGGSLRLSCAASGFTFDDYAMHWVRQVPGKGLEWVSLISGDGGSTYYADSVKGRFTISRDNSKNSLYVQMNSLRTEDTALYYCVKDRGGSGWDLNHYYYGMDVWGQGTTVTVSS
VL: DIQLTQSPSFLSASVGDRVTVTCRASQGISSYLAWYQQKPGKAPKLLIYAAYTLQSGVPSRFSGSGSETEFTLTISSLQPEDFATYYCQQVKSYPLTFGGGTKVEIKR
B5: anti-SARS-CoV-2 antibody 1404 (antibody, V domains shown)
VH: QITLKESGPTLVKPTQTLTLTCTFSGFSLSISGVGVGWLRQPPGKALEWLALIYWDDDKRYSPSLKSRLTISKDTSKNQVVLKMTNIDPVDTATYYCAHHSISTIFDHWGQGTLVTVSS
VL: QSALTQPASVSGSPGQSITISCTATSSDVGDYNYVSWYQQHPGKAPKLMIFEVSDRPSGISNRFSGSKSGNTASLTISGLQAEDEADYYCSSYTTSSAVFGGGTKLTVLG
B6: anti-SARS-CoV-2 antibody 1444 (antibody, V domains shown)
VH: QVQLVQSGAEVKKPGASVKVSCKASGYTFTAYYMHWVRQAPGQGLEWMGWINPNSDDTNYAQKFQGRVTMTRDTSISTAYMELSRLRSDDTAVYYCAREEGVFTIGDRYFDLWGRGTLVSVSS
VL: QTVVTQEPSFSVSPGGTVTLTCGLSSGSVSTSYYPSWYQQTPGQAPRTLIYNTNTRSSGVPDRFSGSILGNKAALTITGAQADDESDYYCVLYMGSGIWVFGGGTKLTVLG
B7: anti-coronavirus antibody 556 (antibody, V domains shown)
VH: QVQLVESGGGVVQPGRSLRLSCAASGFTFSSYAMHWVRQAPGKGLEWVAVISYDGSDKYYADSVKGRVTISRDNSKNTLYLQMNSLRVEDTAVFYCAKDDCSGGVCFPDYWGQGTLVTVSS
VL: QSALTQPASVSGSPGQSITISCTGTSSDVGGYNYVSWYQQHPGKAPKLMIYEVSIRPSGVSNRFSGSKSGNTASLTISGLQAEDEAAYYCSSYTSSSTLVFGGGTKLTVL
B8: anti-coronavirus antibody 571 (antibody, V domains shown)
VH: EVQLVESGGGLVQPGGSLRLSCAASGFTFSTYWMTWVRQAPGKGLEWVANIKHDGSGKYHVDSVKGRFTISRDNAKNSLYLQMNSLRAEDTAVYYCTRDEGGWYDYWGQGTLVTVSS
VL: QSALTQPASVSGSPGQSITISCTGTSSDVGSYNPVSWYQQHPGKAPKVMIYEGSKRPSGVSNRFSGSKSGNTASLTISGLQAEDEADYYCCSYARSSTFVVFGGGTKLTVL
B9: anti-SARS-CoV-2 antibody 894 (antibody, V domains shown)
VH: QVQLVQSGAEVKKPGASVKVSCKVSGYTLPELSIHWVRQAPGKGLEWMGGFDPENAETIYTQKFQGRLTMTEDTSTDTAYMELSSLRSEDTAMYYCATSFVLMPAALGDYSYYYGMDVWGQGTTVTVSS
VL: not shown
B10: anti-SARS-CoV-2 antibody 1075 (antibody, V domains shown)
VH: QVQLVQSGAEVKKPGASVKVSCKVSGYTLIELSMHWVRQAPGKGLEWMGGFDPEDGETIYAQKFQGRVTMTEDTSTDTAYMELSSLRSEDTAVYYCATEWAYYGSGSYLGYWGQGTLVTVSS
VL: EIVMTQSPATLSVSPGERATLSCRASQSVSSNLAWFQQKPGQAPRLLIYGASTRVTVIPARFSGSGSGTEFTLTISSLQSEDFAVYYCQQYNNWPRTFGQGTKVEIKR
B11: anti-SARS-CoV-2 antibody 851 (antibody, V domains shown)
VH: QITLKESGPTLVKPTQTLTLTCTFSGFSLSTNGVGMGWIRQPPGKALEWLALIYWDDDQFYSPSLKSRLTITRDTSKNQVVLTMTNMDPVDTATYYCAQAFYESFGFYSWGQGTLVTVSS
VL: NFMLTQPHSVSESPGKTVIISCTRSIGSIASNYVQWYQQRPGSAPTIVVFEDNERPSGVPDRFSGSIDRSSNSASLTISGLKTEDEADYYCQSYDGSSELVFGGGTKLTVLG
B12: anti-SARS-CoV-2 antibody 1495 (antibody, V domains shown)
VH: QVQLVESGGGVVQPGRSLRLSCTASGFTFSSYAMHWVRQAPGKGLEWVAVISYDGNNKYYGDSVKGRFTISRDNSKNTLYLQMNSLRAEDTAVYYCAKGADTPHYSGYHFLSVGYYFYGMDVWGQGTTVTVSS
VL: DIQMTQSPSSLSASVGDRVTITCRASQSISYYLNWYQQKPGKAPQLLIYAASSLQSGVPSRFSGSRSGTDFTLTISSLQPEDFATYYCQQSYSTPFTFGPGTKVDIKR
B13: anti-SARS-CoV-2 antibody 1015 (antibody, V domains shown)
VH: EVQLVESGGGLVQPGGSLRLSCAASGFTFSSYWMHWVRQAPGKGLVWVSHINSDGSSTSYADSVKGRFTISRDNAKNTLYLQMNSLRAEDTAVYYCARGLRYFDLDVWGQGTTVTVSS
VL: QSVLTQPPSVSEAPRQRVTISCSGSSSNIGNNAVNWYQQLPGKAPKLLIFYDDLLPSGVSDRFSGSKSGTSASLAISGLQSEDEADYYCAAWDDSLNGGVFGGGTKLTVLG
B14: anti-coronavirus antibody 566 (antibody, V domains shown)
VH: QVQLVQSGAEVKKPGASVKVSCKASGYTFTSYAMHWVRQAPGQRLEWMGWINAGNGNTKYSQKFQGRVTITRDTSASTAYMELSSLRSEDTAVYYCARDLGVAVTLHPADFDYWGQGTLVTVSS
VL: QSVLTQPPSVSGAPGQRVTISCTGSSSNIGAGYDVHWYQQLPGTAPKLLIYDNSNRPSGVPDRFSGSKSGTSASLAITGLQAEDEADYYCQSYDSSLSAVVFGGGTKLTVL

Assays:
[1] = biological target: SARS-CoV Spike protein (SARS-CoV, UniProt P59594 14-1190)
[2] = biological target: T1, SARS-CoV full length Spike protein, wild type, expressed on CHO cells (SARS-CoV, UniProt P59594 14-1255); test: flow cytometry, live cell assay on transfected CHO cells
[3] = biological target: T1, SARS-CoV full length Spike protein, …
[4] = biological target: SARS-CoV-2 full length Spike protein, wild type, expressed on CHO cells (SARS-CoV-2, UniProt P0DTC2 14-1273)

Binder | binding signal (fold over isotype control) [1] [fold over isotype control] | binding result [2] | median fluorescence intensity, fold over isotype control [3] [fold over isotype] | median fluorescence intensity, fold over isotype control [4] [fold over isotype]
B1 | 35.4 | – | – | –
B2 | – | no binding | 0.75 | 67.5
B3 | 1.14 | – | – | –
B4 | – | no binding | 0.69 | 70.3
B5 | – | no binding | 0.86 | 71.2
B6 | – | no binding | 0.77 | 48.7
B7 | 1.09 | – | – | –
B8 | 1.28 | – | – | –
B9 | – | no binding | 0.67 | 77.7
B10 | – | no binding | 0.86 | 78.7
B11 | – | no binding | 0.62 | 60
B12 | – | no binding | 0.72 | 57.3
B13 | – | no binding | 0.89 | 30.5
B14 | 0.97 | – | – | –
